Source: PMC2635643, “Improving the Stability of Insulin in Solutions Containing Intestinal Proteases in Vitro” (International Journal of Molecular Sciences, 2008)

Assays:
[1] = UV absorption spectra of insulin in different solutions; assay type: physicochemical; conditions: Table 1, UV absorption at 275 nm; insulin 100 μg/mL, casein 200 μg/mL, HP-β-CD 1 mg/mL (Figure 6A)
Method: Absorption spectra were recorded on a Shimadzu UV-2450 spectrophotometer. The absorption spectra were carried out according to Kano et al..

α-chymotrypsin = assay: Degradation of insulin induced by α-chymotrypsin (remaining insulin by HPLC and PAGE); assay type: in vitro ADME
Method: (§1) HPLC was carried out according to Todo et al. with minor modifications. Analyses of remaining insulin were carried out by reserve phase HPLC with an isocratic system (Shimadzu Co., Kyoto) using the raw insulin bulk drug as the standard (28 IU/mg). The HPLC system was composed of a pump (LC-10ADvp), diode array detector (SPD-M10Avp), column oven (CTO-10ASvp), and LC workstation (CLASS-LC10). The mobile phase was a 72:28 mixture of 0.2 mol/L sodium sulphate buffer (pH 3.0) and acetonitrile at a flow rate of 1.0 mL/min. The column was a Shodex Asahipak ODP-50 6D (4.6mm × 150 mm, 5 um) (Showa Denko, Ltd., Tokyo) heated at room temperature. Ultraviolet absorption was measured at 214 nm.
(§2) PAGE was carried out according to Laemmli with minor modifications. The running gel, stacking gel and electrode buffer are without sodium dodecyl sulfate (SDS). The running gel and stacking gel contained 15% and 4.5% acrylamide, respectively. After electrophoresis, the gels were subjected to stain with Coomassie Brilliant R-250.
(§3) Insulin was dissolved in a few drops of 0.05 mol/L HCL, then 0.05 mol/L PBS (phosphate buffer, pH=7.0) was added. α-Chymotrypsin (5 mg/mL) and trypsin (12 mg/mL) solutions were prepared with Tris-HCL buffer (pH=8.0), respectively. Casein (5 g) was dissolved in 0.1 mol/L NaOH (10 mL), then was diluted to 100 mL with PBS (pH=7.0), The pH of final concentration was again measured and adjusted to pH 7.0. 5% Protamine solution was prepared with PBS (pH=7.0). Insulin solution and enzyme solutions were incubated at 37 °C for 15 min. Different treatments were administered. The final concentration of insulin in the solution was 0.5 mg/mL. The final mass ratios in the solution were as following, insulin:HP-β-CD = 1 :30; insulin:casein = 1:10; insulin:protamine = 1:10; insulin:casein or protamine:HP-β-CD = 1:10:30. Before the addition of a-chymotrypsin solution, insulin solution was vortexed at high speed for 5 s and a sample was withdrawn and added with ice-cold 0.5% TFA acid as the zero time sample. Samples were withdrawn for 15, 30, 45 and 60 min after the addition of the enzyme solution at 37 °C. The final enzyme concentrations of α-chymotrypsin and trypsin were 8 mg/L [29] and 600 mg/L [21], respectively. Then the samples were analyzed by PAGE and HPLC after adding 50 μl of ice-cold 0.5% TFA acid to terminate the reaction. Every experiment was carried out three times. The average and the standard deviation of the data were calculated.

trypsin = assay: Degradation of insulin induced by trypsin (remaining insulin by HPLC and PAGE); assay type: in vitro ADME
Method: as §1, §2, §3

Casein
ΔA275 [1]: 0.219

Insulin
insulin detected (remaining) against α-chymotrypsin, treated with HP-β-CD (α-chymotrypsin; insulin 0.5 mg/mL, insulin:HP-β-CD = 1:30 (mass), α-chymotrypsin 8 mg/L, PBS pH 7.0, 37 °C, sampling 0-60 min, HPLC UV 214 nm, mean of n=3, P>0.05 vs insulin alone): About 25% | insulin remained undegraded against α-chymotrypsin, treated with casein (α-chymotrypsin; insulin 0.5 mg/mL, insulin:casein = 1:10 (mass), α-chymotrypsin 8 mg/L, PBS pH 7.0, 37 °C, sampling 0-60 min, HPLC UV 214 nm, mean of n=3, P<0.01 vs insulin alone): about 45% | insulin remained undegraded against α-chymotrypsin, co-incubated with HP-β-CD and casein (α-chymotrypsin; insulin 0.5 mg/mL, insulin:casein:HP-β-CD = 1:10:30 (mass), α-chymotrypsin 8 mg/L, PBS pH 7.0, 37 °C, sampling 0-60 min, HPLC UV 214 nm, mean of n=3, P<0.001 vs insulin alone): About 80% | remaining insulin against α-chymotrypsin (α-chymotrypsin; insulin alone 0.5 mg/mL, α-chymotrypsin 8 mg/L, PBS pH 7.0, 37 °C, after 60 min, 15 min pre-incubation, HPLC UV 214 nm and PAGE, n=3): most of insulin was degraded | remained insulin against α-chymotrypsin in the solution containing casein and protamine (α-chymotrypsin; insulin with casein and protamine, α-chymotrypsin, 37 °C, data not shown): almost equal to that in the solution containing casein | degradation of insulin by trypsin, treated with HP-β-CD (trypsin; insulin 0.5 mg/mL, insulin:HP-β-CD = 1:30 (mass), trypsin 600 mg/L, PBS pH 7.0, 37 °C, 0-60 min, n=3, P>0.05 vs insulin alone): partly inhibited | degradation of insulin by trypsin in the presence of protamine (trypsin; insulin 0.5 mg/mL, insulin:protamine = 1:10 (mass), trypsin 600 mg/L, PBS pH 7.0, 37 °C, 0-60 min, n=3, P<0.05 vs insulin alone): significantly decreased | insulin detected (remaining) against trypsin, co-incubated with HP-β-CD and protamine (trypsin; insulin 0.5 mg/mL, insulin:protamine:HP-β-CD = 1:10:30 (mass), trypsin 600 mg/L, PBS pH 7.0, 37 °C, at 60 min, HPLC UV 214 nm, mean of n=3, P<0.01 vs insulin alone): about 70% | insulin remained against trypsin (trypsin; insulin alone 0.5 mg/mL, trypsin 600 mg/L, PBS pH 7.0, 37 °C, after 60 min, 15 min pre-incubation, HPLC UV 214 nm, mean of n=3): about 15% | remaining insulin against trypsin in the solution containing casein and protamine (trypsin; insulin with casein and protamine, trypsin, 37 °C, data not shown): almost equal to that in the solution containing protamine | ΔA275 [1]: 0.098
